Test results published in article doi:10.1101/2024.12.26.630402 (bioRxiv, 2024).

Target: the molecule itself
Test: cryo-EM structure

B1: large glutamate dehydrogenase of 180 kDa subunits from Mycobacterium smegmatis (mL-GDH180) (enzyme)
chain: MIRRLSVAFLSTYRGPQADAPGVTSTGPLAVAAHDDLVSDDLVAAHYRLASMRAPGETKAAVYPGDAGSGAALQIVTDQAPMLVDSVTVLLHRHGIAYTAIMNPVFRVRRGLDGELLDVRPAAEAAPGDGADECWILVPITAAADGEALTEATRLVPGILAEARQIGLDSGAMIAALHGLANDLATDLEGHFPNAERKEVAALLRWLADGHFVLLGYQQCVVGDGNAEVDPASRLGVLRLRNDVLPPLTDSDDLLVLAQATMPSYLRYGAYPYIVVVRESPGASRVIEHRFVGLFTVAAMNANALEIPLISRRVEEALAMAHRDPSHPGQLLRDIIQTIPRPELFALSSKQLLEMALAVVDLGSRRRTLLFLRADHLAHFVSCLVYLPRDRYTTAVRLEMQDILVRELGGAGIDYSARVSESPWAVVHFTVRLPEGTAADSVDTSLENESRIQDLLTEATRNWGDRMISAAAAASISPAALEHYAHAFPEDYKQAFAPQDAIADISLIEALQDDSVKLVLADTAEDRVWKLTWYLGGHSASLSELLPMLQSMGVVVLEERPFTLRRTDGLPVWIYQFKISPHPSIPHAPDAEAQRDTAQRFADAVTAIWHGRVEIDRFNELVMRAGLTWQQVVVLRAYAKYLRQAGFPYSQSHIESVLNENPHTTRSLIDLFEALFDPSQETDGRRDAQGAAAAVAADIDALVSLDTDRVLRAFANLIEATLRTNYFVARPDSARARNVLAFKLNPLVIKELPLPRPKFEIFVYSPRVEGVHLRFGFVARGGLRWSDRREDFRTEILGLVKAQAVKNAVIVPVGAKGGFVVKRPPTLTGDAAADREATRAEGVECYRLFISGLLDVTDNVDKATGAVVTPPEVVRRDGEDAYLVVAADKGTATFSDIANEVAKSYGFWLGDAFASGGSIGYDHKAMGITAKGAWESVKRHFREMGVDTQTQDFTVVGIGDMSGDVFGNGMLLSKHIRLVAAFDHRDIFLDPNPDAGRSWDERKRLFDLPRSSWADYDKSLISEGGGVYSRQQKSIPISPQVRTALGLDADVEELTPPALIKAILKAPVDLLWNGGIGTYIKAETEADADVGDRANDQIRVCGNQVRAKVIGEGGNLGVTALGRIEFDLAGGRINTDALDNSAGVDCSDHEVNIKILIDSAVTAGKVTPEERTELLLSMTDEVGELVLADNRDQNDLMGTSRANAASLLSVHARMIKDLVDNRGLNRELEALPSEKEIRRRADAGIGLTSPELATLMAHVKLALKDDVLASDLPDQEVFASRLPYYFPTRLREELHGEIRSHQLRREIITTMLVNDLVDTAGISYAYRITEDVGVGPVDAVRSYVAINAIFGIGDVWRRIRAAGDAGVPTSVTDRMTLDLRRLVDRAGRWLLNYRPQPLAVGAEINRFGAKVAALTPRMSEWLRGDDKAIVSKEAGDFASHGVPEDLAYHIATGLYQYSLLDVIDIADIVDREPDEVADTYFALMDHLGADALLTAVSRLSRDDRWHSLARLAIRDDIYGSLRALCFDVLAVGEPDENGEEKIAEWETTNSSRVTRARRTLTEIYKDGEQDLATLSVAARQIRSMTRTSGTGTTG
With B1 the “stoichiometry N” value was 4.
